Results taken from patent US20250270167A1.

Target: GHR

| Substance | EC50 (chemiluminescence value, ONE-Glo, HEK293-GHR cells) [µg/mL] | Relative activity (%) |
| --- | --- | --- |
| Jintropin (commercially available rhGH drug, Changchun GeneScience Pharmaceutical Co., Ltd.) (from UniProt P01241) (ligand) | 0.0126 | – |
| Polyethylene Glycol Recombinant Human Somatropin Injection (commercially available PEG-rhGH drug, Changchun GeneScience Pharmaceutical Co., Ltd.) (from UniProt P01241) (ligand) | 0.0686 | 18 |
| rhGH standard product of National Institutes for Food and Drug Control (from UniProt P01241) (ligand) | 0.012 | – |
